Assay results published in publication PMC9605988, “Juxtaposition of Bub1 and Cdc20 on phosphorylated Mad1 during catalytic mitotic checkpoint complex assembly” (Nature Communications, 2022).
Square brackets hold non-standard residues; d marks the D form. Peptide text beside a SMILES is read from it. * marks the point of attachment. X1 = N=c1ccc2c(-c3ccc(C(=O)NCCCCCN4C(=O)CC(*)C4=O)cc3C(=O)O)c3ccc(N)c(S(=O)(=O)O)c3oc-2c1S(=O)(=O)O; pT = C[C@@H](OP(=O)(O)O)[C@H](N)C(=O)O; pS = N[C@@H](COP(=O)(O)O)C(=O)O

Columns and labels:
pMad1CTD:Cdc20N complex = target: T1, pMad1CTD:Cdc20N complex (Homo sapiens, UniProt Q12834+Q9Y6D9); test: Fluorescence anisotropy: AF488-Bub1CD1 binding to preformed pMad1CTD:Cdc20N complex; details: KD 1.7 vs 0.9 µM for pMad1CTD alone
T1 construct: the C-terminal domain of Mad1 (residue 597–718); made in house; host or cells: Cdc20N: E. coli Rosetta 2 (DE3)
Experimental: All reactions were completed in a buffer of 25 mM HEPES pH 7.75, 1 mM TCEP, 100 mM NaCl, 0.05% (v/v) Tween-20. […] Measurements were performed with a PheraStar plate reader FSX plate reader (BMG Labtech) using an optic module for λex = 485 nm, λem = 520 nm. Reactions were carried out in a total volume of 40 μl at 25 °C in a black, flat-bottom, non-binding surface 384-well plate (Corning). All experiments were performed as technical triplicates and data were analysed in PRISM 9.3.1 (GraphPad Software).

Mad1 CTD (Homo sapiens) = Mad1 CTD (Homo sapiens) (UniProt Q9Y6D9); details: cited from earlier work
[1] = test system: AF488-Bub1CD1:pMad1CTD complex; test: Fluorescence anisotropy: Cdc20N titrated into preformed AF488-Bub1CD1:pMad1CTD complex; format: binding, human; details: at the concentrations used in the assay
pMad1CTD (Mad1CTD pT716) = test: SEC-MALS, Cdc20N with pMad1CTD; format: binding, human; details: 1:1.2 ratio Mad1CTD dimer to Cdc20N
Experimental: (§1) Size-exclusion chromatography coupled with multi-angle static light scattering (SEC-MALS), was performed using an Agilent 1200 series LC system with an online Dawn Helios ii system (Wyatt) equipped with a QELS + module (Wyatt) and an Optilab rEX differential refractive index detector (Wyatt). About 100 μl purified protein at ~3.0 mg/ml was auto-injected onto Superdex 75 or a Superdex 200 Increase 10/300 GL column (GE Healthcare) and run at 0.5 ml/min. The molecular masses were analysed with ASTRA 7.3.0.11 (Wyatt). Data were plotted using Prism 8.4.3 (GraphPad Software, Inc). Purified Cdc20^N and Cdc20^N mutants were incubated with Mad1^CTD wild-type or mutants at a 1:1.2 ratio of Mad1^CTD dimer to Cdc20^N.

[2] = test system: Mad1CTD R617E/K619D mutant; test: SEC-MALS, Cdc20N with Mad1CTD R617E/K619D; format: binding, human; details: 1:1.2 ratio Mad1CTD dimer to Cdc20N
Experimental: as §1

T1 sequence (Q9Y6D9 597-718): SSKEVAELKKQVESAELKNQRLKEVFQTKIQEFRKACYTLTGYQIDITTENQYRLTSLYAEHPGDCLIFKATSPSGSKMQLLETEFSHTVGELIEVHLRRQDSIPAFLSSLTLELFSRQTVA
T1 sequence (Q12834 1-73 partner): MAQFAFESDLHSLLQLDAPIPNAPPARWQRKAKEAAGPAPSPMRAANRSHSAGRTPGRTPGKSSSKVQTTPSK

CC[C@H](C)[C@H](NC(=O)[C@H](Cc1ccccc1)NC(=O)CNC(=O)[C@H](CC(C)C)NC(=O)[C@H](C)NC(=O)[C@H](CCC(=O)O)NC(=O)[C@H](CCCCN)NC(=O)[C@@H](NC(=O)[C@H](Cc1c[nH]cn1)NC(=O)[C@@H](NC(=O)[C@@H](NC(=O)[C@@H]1CCCN1C(=O)[C@H](COP(=O)(O)O)NC(=O)[C@@H]1CCCN1C(=O)[C@H](CCC(N)=O)NC(=O)[C@@H](NC(=O)[C@H](CCCCN)NC(=O)[C@H](Cc1c[nH]c2ccccc12)NC(=O)[C@@H](N)CSC1CC(=O)N(CCCCCNC(=O)c2ccc(-c3c4ccc(=N)c(S(=O)(=O)O)c-4oc4c(S(=O)(=O)O)c(N)ccc34)c(C(=O)O)c2)C1=O)C(C)C)[C@@H](C)OP(=O)(O)O)C(C)C)[C@@H](C)O)C(=O)N[C@@H](CCSC)C(=O)N[C@@H](CC(N)=O)C(=O)N[C@@H](CCSC)C(=O)N[C@@H](Cc1ccccc1)C(=O)N[C@@H](CCC(N)=O)C(=O)N[C@@H](C)C(=O)N1CCC[C@H]1C(=O)N[C@H](C(=O)N[C@@H](CO)C(=O)O)[C@@H](C)O (stereo partly drawn) [AF488-Bub1^CD1] (H-C(X1)WKVQP[pS]P[pT]VHTKEALGFIMNMFQAPTS-OH; N-terminus and C-terminus assumed)
cooperativity of Bub1CD1 and Cdc20N binding to pMad1CTD (pMad1CTD:Cdc20N complex): unlikely to be cooperative | cooperativity of Bub1CD1 and Cdc20N binding to pMad1CTD (pMad1CTD:Cdc20N complex; listed as AF488-Bub1CD1): no cooperativity

Bub1 CD1 (from UniProt O43683)
Kd (Mad1 CTD (Homo sapiens)): 2.7 µM

B1: Cdc20^N E7R/D9K: Cdc20N E7R/D9K mutant (protein)
chain: MAQFAFRSKLHSLLQLDAPIPNAPPARWQRKAKEAAGPAPSPMRAANRSHSAGRTPGRTPGKSSSKVQTTPSK
modifications: left off: His6, N-terminal, state not stated | MBP, N-terminal, state not stated
notes: Cdc20N E7R/D9K mutant
interaction with pMad1CTD by fluorescence anisotropy [1]: could no longer be observed | binding by SEC-MALS (pMad1CTD (Mad1CTD pT716)): could no longer be observed | binding by SEC-MALS [2]: did not show an interaction
